Reference: publication PMC3092982, “Zinc Binding to the Tyr402 and His402 Allotypes of Complement Factor H: Possible Implications for Age-Related Macular Degeneration” (Journal of Molecular Biology, 2011)
Numbering of substitutions follows the chain as printed.

B1: recombinant FH fragment SCR-6/8 Tyr402 (domain or fragment, human)
chain: LKPCDYPDIKHGGLYHENMRRPYFPVAVGKYYSYYCDEHFETPSGSYWDHIHCTQDGWSPAVPCLRKCYFPYLENGYNQNYGRKFVQGKSIDVACHPGYALPKAQTTVTCMENGWSPTPRCIRVKTCSKSSIDIENGFISESQYTYALKEKAKYQCKLGYVTADGETSGSITCGKDGWSAQPTCI
notes: complement factor H, human, SCR domains 6 to 8, Tyr402 allotype; It says that SCR-6/8, unlike SCR-1/5 and SCR-16/20, has no His6-tag; also called SCR-6/8 Tyr402 allotype; source: E. coli BL21 (DE3), pET21ab
B2: recombinant FH fragment SCR-6/8 His402 (domain or fragment, human)
chain: B1 chain with Y81H
notes: complement factor H, human, SCR domains 6 to 8, His402 allotype; It says that SCR-6/8, unlike SCR-1/5 and SCR-16/20, has no His6-tag; PDB 2UWN is a cited crystal structure of SCR-6/8 His402 whose limits may differ from this construct; also called SCR-6/8 His402 allotype; source: E. coli BL21 (DE3)pLysS, pET14b

Molecular target: the molecule itself
Assay: AUC; sedimentation velocity, SCR-6/8 at 0.3 mg/ml (14.6 μM), Hepes buffer, 20 °C, 50,000 rpm, c(s) analysis; monomer and dimer peaks seen throughout the ZnSO4 titration 0.2-600 μM

Row | Protein | stoichiometry N
1 | B1 | 2
2 | B2 | 2
